In assay [1] the target is T1, human PCSK9 with a C-terminal myc-myc-hexahistidine tag (human, UniProt Q8NBP7 31-692, limits assumed).
T1 construct: also called hPCSK9-mmH; hPCSK9-mmh; not shown: C-terminal myc-myc-hexahistidine tag
Description: SPR 25C, mAb captured.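 Further: biacore CM4 surface bearing anti-human Fc antibody capturing the mAbs, PCSK9 binding and release rates fitted with a one-to-one model, KD and half-life derived from those rates.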

For assay [2], the target named is human PCSK9 with a C-terminal myc-myc hexahistidine tag and a D374Y mutation (human, UniProt Q8NBP7 31-692, limits assumed). Description: cell-based or functional assay.
The target of assay [3] is recombinant cynomolgus monkey PCSK9 with a C-terminal myc-myc hexahistidine tag (cynomolgus monkey, UniProt A8T662 31-692 (Macaca nemestrina entry), limits assumed). As to the kind of experiment: cell-based or functional assay.
Assay [4] addresses T1, human PCSK9 with a C-terminal …. Description: SPR 25C pH 7.2, mAb captured.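 Further: biacore SPR, antibodies captured on anti-human Fc CM4 chip with PCSK9 flowed as analyte, rate constants from a one-to-one kinetic fit, KD and half-life derived from them.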
Description: (§1) A Biacore CM4 sensor chip was derivatized with a monoclonal mouse anti-human Fc antibody to capture human antibodies. The histidine substitution variant anti-PCSK9 antibodies were captured onto the anti-human Fc sensor surface from culture medium after transient expression in Chinese hamster ovary (CHO) cells. […] Kinetic association (kₐ) and dissociation (kd) rate constants were determined by processing and fitting the data to a 1:1 binding model using Scrubber 2.0 curve fitting software. Binding dissociation equilibrium constants (KD) and dissociative half-lives (t_{1/2}) were calculated from the kinetic rate constants as: KD (M)=kd/kₐ; and t_{1/2} (min)=(In2/(60*kd).
The target is the same in assay [5]. As to the kind of experiment: SPR 25C pH 5.75, mAb captured.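 Further: biacore surface with anti-human Fc antibody capturing the antibodies, PCSK9 as analyte, one-to-one kinetic fit, KD as kd over ka, half-life derived from kd.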
Assay [6] has the same target. As to the kind of experiment: blocking ELISA pH 7.2, 500 pM hPCSK9-mmH vs coated hLDLR EGFA-hFc, exp #1. In general terms: In an ELISA, binding on a coated surface is turned into a signal by an enzyme label.
Description: The equilibrated sample solutions were then transferred to the LDLR EGFA-hFc coated plate prepared as described above.
For assay [7] the target is unchanged. Description: SPR 25C, purified mAb captured.
Description: as §1
(§2) Also included in these experiments were several control/comparator antibodies. All measurements were taken at 25° C.
Assay [8] shares this target. As to the kind of experiment: SPR 25C pH 7.4, purified mAb captured.
Description: as §1
All measurements were taken at 25° C.
For assay [9] the target is unchanged. As to the kind of experiment: SPR 25C pH 6.0, purified mAb captured.
Description: as §1, §2

Results on 13 molecules are retold here after patent US20140044730A1 (Regeneron, published 2014).

One may read the Kd as the free concentration of one partner at which half of the binding sites on the other are occupied at equilibrium, for simple one-to-one binding. What is called t½ is how long it takes for the measured level to halve. A word on the IC50: it is the concentration that gives 50% inhibition. The koff is the rate constant with which the complex falls apart. In general, kon refers to the rate constant with which the complex forms.

B1: VH-D108H (antibody, V domains shown)
VH: EMQLVESGGGLVQPGGSLRLSCAASGFTFSSHWMKWVRQAPGKGLEWVANINQDGSEKYYVDSVKGRFTISRDNAKNSLFLQMNSLRAEDTAVYYCARDIVLMVYDMHYYYYGMDVWGQGTTVTVSS
VL: not shown
notes: His variant of 300N
In the case of B1, in [1], the “KD ratio pH 5.75/pH 7.2” value worked out at 1.73 and the “t½ ratio pH 5.75/pH 7.2” value is 0.24. Besides, in assay [2], the “IC50, LDL uptake in HepG2 cells, 2 nM hPCSK9-D374Y-mmH” value was 2.6 nM. In addition, in [3], the “IC50, LDL uptake in HepG2 cells, 50 nM MfPCSK9-mmH” value is 12.7 nM. In addition, in assay [4], the dissociation constant Kd was found to be 2.69 nM and the t½ worked out at 28 min. In [5], the Kd was 4.67 nM and the t½ was determined as 7 min. The same molecule yielded a half-maximal inhibitory concentration (IC50) in assay [6] of 0.334 nM.

B2: VH-M107H (antibody, V domains shown)
VH: EMQLVESGGGLVQPGGSLRLSCAASGFTFSSHWMKWVRQAPGKGLEWVANINQDGSEKYYVDSVKGRFTISRDNAKNSLFLQMNSLRAEDTAVYYCARDIVLMVYDHDYYYYGMDVWGQGTTVTVSS
VL: not shown
notes: His variant of 300N
B2: in assay [1], the “KD ratio pH 5.75/pH 7.2” value was found to be 4.02 and the “t½ ratio pH 5.75/pH 7.2” value was determined as 0.02. Further, the “IC50, LDL uptake in HepG2 cells, 2 nM hPCSK9-D374Y-mmH” value in [2] came to 4.6 nM. The “IC50, LDL uptake in HepG2 cells, 50 nM MfPCSK9-mmH” value in assay [3] amounted to 15.9 nM. In assay [4], this molecule showed a Kd of 7.34 nM and a t½ of 13 min. In assay [5], this molecule displayed a Kd of 29.5 nM and a t½ of 0.2 min. In assay [6], half-maximal inhibition (IC50) required 0.704 nM.

B3: VK-Q27H (antibody, V domains shown)
VH: EMQLVESGGGLVQPGGSLRLSCAASGFTFSSHWMKWVRQAPGKGLEWVANINQDGSEKYYVDSVKGRFTISRDNAKNSLFLQMNSLRAEDTAVYYCARDIVLMVYDMDYYYYGMDVWGQGTTVTVSS
VL: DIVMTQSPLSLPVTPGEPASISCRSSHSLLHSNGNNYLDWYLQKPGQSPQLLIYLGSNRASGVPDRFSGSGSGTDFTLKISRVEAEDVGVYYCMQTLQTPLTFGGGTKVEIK
notes: His variant of 300N
Regarding B3, in [1], the “KD ratio pH 5.75/pH 7.2” value is 0.57 and the “t½ ratio pH 5.75/pH 7.2” value was 0.42. In assay [4], the Kd was 5.01 nM and the t½ stood at 9 min. Moreover, in assay [5], binding was put at a Kd of 2.85 nM and the t½ amounted to 4 min.

B4: VK-Q95H (antibody, V domains shown)
VH: EMQLVESGGGLVQPGGSLRLSCAASGFTFSSHWMKWVRQAPGKGLEWVANINQDGSEKYYVDSVKGRFTISRDNAKNSLFLQMNSLRAEDTAVYYCARDIVLMVYDMDYYYYGMDVWGQGTTVTVSS
VL: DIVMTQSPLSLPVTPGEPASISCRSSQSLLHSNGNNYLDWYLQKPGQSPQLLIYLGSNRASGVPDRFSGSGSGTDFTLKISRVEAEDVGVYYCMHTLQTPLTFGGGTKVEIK
notes: His variant of 300N
B4: in assay [1], the “KD ratio pH 5.75/pH 7.2” value was determined as 1.48 and the “t½ ratio pH 5.75/pH 7.2” value is 0.23. For the same molecule, in [4], the Kd amounted to 1.33 nM and the t½ was 27 min. Further, in [5], the equilibrium dissociation constant (Kd) came to 1.97 nM and the t½ was found to be 6 min.

B5: VK-N36H (antibody, V domains shown)
VH: EMQLVESGGGLVQPGGSLRLSCAASGFTFSSHWMKWVRQAPGKGLEWVANINQDGSEKYYVDSVKGRFTISRDNAKNSLFLQMNSLRAEDTAVYYCARDIVLMVYDMDYYYYGMDVWGQGTTVTVSS
VL: not shown
notes: His variant of 300N
In the case of B5, in assay [1], the “KD ratio pH 5.75/pH 7.2” value came to 1.61 and the “t½ ratio pH 5.75/pH 7.2” value came to 0.24. In assay [4], this molecule showed a Kd of 0.952 nM and a t½ of 42 min. Besides, in [5], the affinity, expressed as Kd, was 1.54 nM and the t½ was 10 min.

B6: VK-T99H (antibody, V domains shown)
VH: EMQLVESGGGLVQPGGSLRLSCAASGFTFSSHWMKWVRQAPGKGLEWVANINQDGSEKYYVDSVKGRFTISRDNAKNSLFLQMNSLRAEDTAVYYCARDIVLMVYDMDYYYYGMDVWGQGTTVTVSS
VL: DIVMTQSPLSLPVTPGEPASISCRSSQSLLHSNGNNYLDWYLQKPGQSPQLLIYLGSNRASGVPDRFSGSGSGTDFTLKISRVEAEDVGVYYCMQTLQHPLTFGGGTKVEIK
notes: His variant of 300N
With B6, in [1], the “KD ratio pH 5.75/pH 7.2” value was 1.25 and the “t½ ratio pH 5.75/pH 7.2” value amounted to 0.1. In [4], this molecule registered a Kd of 9.63 nM and a t½ of 5 min. For the same molecule, in assay [5], binding was characterised by a dissociation constant (Kd) of 12 nM and the t½ worked out at 0.4 min.

B7: VK-Q98H (antibody, V domains shown)
VH: EMQLVESGGGLVQPGGSLRLSCAASGFTFSSHWMKWVRQAPGKGLEWVANINQDGSEKYYVDSVKGRFTISRDNAKNSLFLQMNSLRAEDTAVYYCARDIVLMVYDMDYYYYGMDVWGQGTTVTVSS
VL: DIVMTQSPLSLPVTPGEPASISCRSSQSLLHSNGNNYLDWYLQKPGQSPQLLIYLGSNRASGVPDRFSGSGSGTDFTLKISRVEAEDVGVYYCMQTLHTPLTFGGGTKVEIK
notes: His variant of 300N
For the molecule B7, in assay [1], the “KD ratio pH 5.75/pH 7.2” value worked out at 0.88 and the “t½ ratio pH 5.75/pH 7.2” value came to 0.41. Also, in [4], the Kd worked out at 0.914 nM and the t½ amounted to 49 min. In [5], this molecule displayed a Kd of 0.805 nM and a t½ of 20 min.

B8: VK-S57H (antibody, V domains shown)
VH: EMQLVESGGGLVQPGGSLRLSCAASGFTFSSHWMKWVRQAPGKGLEWVANINQDGSEKYYVDSVKGRFTISRDNAKNSLFLQMNSLRAEDTAVYYCARDIVLMVYDMDYYYYGMDVWGQGTTVTVSS
VL: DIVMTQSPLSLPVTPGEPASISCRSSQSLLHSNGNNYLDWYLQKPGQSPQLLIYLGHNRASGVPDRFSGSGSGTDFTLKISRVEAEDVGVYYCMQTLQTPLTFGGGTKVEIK
notes: His variant of 300N
B8: in [1], the “KD ratio pH 5.75/pH 7.2” value is 1.84 and the “t½ ratio pH 5.75/pH 7.2” value is 0.26. In [4], this molecule showed a Kd of 0.948 nM and a t½ of 48 min. In [5], this molecule gave an equilibrium dissociation constant (Kd) of 1.74 nM and a t½ of 12 min.

B9: VK-P100H (antibody, V domains shown)
VH: EMQLVESGGGLVQPGGSLRLSCAASGFTFSSHWMKWVRQAPGKGLEWVANINQDGSEKYYVDSVKGRFTISRDNAKNSLFLQMNSLRAEDTAVYYCARDIVLMVYDMDYYYYGMDVWGQGTTVTVSS
VL: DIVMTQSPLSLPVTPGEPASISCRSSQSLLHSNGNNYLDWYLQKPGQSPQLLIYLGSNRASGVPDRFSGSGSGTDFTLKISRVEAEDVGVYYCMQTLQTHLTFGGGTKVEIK
notes: His variant of 300N
With B9, in assay [1], the “KD ratio pH 5.75/pH 7.2” value came to 1.44 and the “t½ ratio pH 5.75/pH 7.2” value was 0.1. In assay [4], the dissociation constant Kd worked out at 8.9 nM and the t½ was 4 min. Further, in assay [5], the dissociation constant Kd turned out to be 12.8 nM and the t½ worked out at 0.4 min.

B10: VK-Y37H (antibody, V domains shown)
VH: EMQLVESGGGLVQPGGSLRLSCAASGFTFSSHWMKWVRQAPGKGLEWVANINQDGSEKYYVDSVKGRFTISRDNAKNSLFLQMNSLRAEDTAVYYCARDIVLMVYDMDYYYYGMDVWGQGTTVTVSS
VL: not shown
notes: His variant of 300N
Take B10: in [1], the “KD ratio pH 5.75/pH 7.2” value turned out to be 72.3 and the “t½ ratio pH 5.75/pH 7.2” value stood at 0.54. In [4], this molecule returned a Kd of 61.2 nM and a t½ of 0 min. In [5], this molecule had a dissociation constant Kd of 4420 nM and a t½ of 0.2 min.

B11: VK-S28H (antibody, V domains shown)
VH: EMQLVESGGGLVQPGGSLRLSCAASGFTFSSHWMKWVRQAPGKGLEWVANINQDGSEKYYVDSVKGRFTISRDNAKNSLFLQMNSLRAEDTAVYYCARDIVLMVYDMDYYYYGMDVWGQGTTVTVSS
VL: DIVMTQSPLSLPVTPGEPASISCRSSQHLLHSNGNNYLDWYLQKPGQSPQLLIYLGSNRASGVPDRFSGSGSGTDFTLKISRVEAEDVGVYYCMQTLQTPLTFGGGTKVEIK
notes: His variant of 300N
For B11, in [1], the “KD ratio pH 5.75/pH 7.2” value is 0.06 and the “t½ ratio pH 5.75/pH 7.2” value came out at 22.2. In [4], this molecule showed a dissociation constant (Kd) of 138 nM and a t½ of 0 min. In assay [5], this molecule gave a dissociation constant (Kd) of 7.63 nM and a t½ of 6 min.

B12: VK-T102H (antibody, V domains shown)
VH: EMQLVESGGGLVQPGGSLRLSCAASGFTFSSHWMKWVRQAPGKGLEWVANINQDGSEKYYVDSVKGRFTISRDNAKNSLFLQMNSLRAEDTAVYYCARDIVLMVYDMDYYYYGMDVWGQGTTVTVSS
VL: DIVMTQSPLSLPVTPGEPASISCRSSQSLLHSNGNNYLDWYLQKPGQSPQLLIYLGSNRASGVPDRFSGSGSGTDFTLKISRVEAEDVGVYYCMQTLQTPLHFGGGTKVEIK
notes: His variant of 300N
As to B12, in assay [1], the “KD ratio pH 5.75/pH 7.2” value came out at 1.17 and the “t½ ratio pH 5.75/pH 7.2” value was found to be 0.33. For the same molecule, in assay [4], the dissociation constant Kd worked out at 1.03 nM and the t½ is 49 min. In addition, in assay [5], binding was characterised by a dissociation constant (Kd) of 1.21 nM and the t½ was determined as 16 min.

B13: 316P(v2) (antibody, IgG4, V domains shown)
VH: EVQLVESGGGLVQPGGSLRLSCAASGFTFNNYAMNWVRQAPGKGLDWVSTISGSGGTTNYADSVKGRFIISRDSSKHTLYLQMNSLRAEDTAVYYCAKDSNWGNFDLWGRGTLVTVSS
VL: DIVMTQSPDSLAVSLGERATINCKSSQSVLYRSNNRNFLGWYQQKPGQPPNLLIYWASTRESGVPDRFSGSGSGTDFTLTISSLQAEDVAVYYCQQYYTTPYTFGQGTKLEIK
notes: also called 316(v2)
As to B13, in assay [7], the “KD ratio pH 6.0/pH 7.4” value was determined as 0.41, the “ka ratio pH 6.0/pH 7.4” value came out at 1.25, the “kd ratio pH 6.0/pH 7.4” value was found to be 0.51 and the “t½ ratio pH 6.0/pH 7.4” value came out at 1.96. In assay [8], binding was characterised by a dissociation constant (Kd) of 0.566 nM, the koff was found to be 0.000292 s⁻¹, the on-rate constant (kon) worked out at 517000 M⁻¹ s⁻¹ and the t½ worked out at 39.5 min. In assay [9], this molecule displayed an equilibrium dissociation constant (Kd) of 0.23 nM, a koff of 0.000149 s⁻¹, an on-rate constant (kon) of 649000 M⁻¹ s⁻¹ and a t½ of 77.5 min.
